Patent US20230002480A1

Tests used:
Assay in all cases: cell-based or functional assay
[1] = target: HIV-1 Env of pseudovirus 1054_07_TC4_1499 (HIV-1)
[2] = target: HIV-1 Env of pseudovirus 191955_A11 (HIV-1)
[3] = target: HIV-1 Env of pseudovirus 246F C1G (HIV-1)
[4] = target: HIV-1 Env of pseudovirus 263-8 (HIV-1)
[5] = target: HIV-1 Env of pseudovirus 6240_08_TA5_4622 (HIV-1)
[6] = target: HIV-1 Env of pseudovirus 6535.3 (HIV-1)
[7] = target: HIV-1 Env of pseudovirus 928-28 (HIV-1)
[8] = target: HIV-1 Env of pseudovirus AC10.0.29 (HIV-1)
[9] = target: HIV-1 Env of pseudovirus CAAN5342.A2 (HIV-1)
[10] = target: HIV-1 Env of pseudovirus CAP45.2.00.G3 (HIV-1)
[11] = target: HIV-1 Env of pseudovirus CNE20 (HIV-1)
[12] = target: HIV-1 Env of pseudovirus CNE52 (HIV-1)
[13] = target: HIV-1 Env of pseudovirus CNE53 (HIV-1)
[14] = target: HIV-1 Env of pseudovirus Ce1172_H1 (HIV-1)
[15] = target: HIV-1 Env of pseudovirus Ce703010054_2A2 (HIV-1)
[16] = target: HIV-1 Env of pseudovirus Ce704809221_1B3 (HIV-1)
[17] = target: HIV-1 Env of pseudovirus Du156.12 (HIV-1)
[18] = target: HIV-1 Env of pseudovirus HIV-0013095-2.11 (HIV-1)
[19] = target: HIV-1 Env of pseudovirus MS208.A1 (HIV-1)
[20] = target: HIV-1 Env of pseudovirus PVO.4 (HIV-1)
[21] = target: HIV-1 Env of pseudovirus Q259.d2.17 (HIV-1)
[22] = target: HIV-1 Env of pseudovirus Q461.e2 (HIV-1)
[23] = target: HIV-1 Env of pseudovirus RHPA4259.7 (HIV-1)
[24] = target: HIV-1 Env of pseudovirus T250-4 (HIV-1)
[25] = target: HIV-1 Env of pseudovirus WEAU_d15_410_787 (HIV-1)
[26] = target: HIV-1 Env of pseudovirus ZM135M.PL10a (HIV-1)
[27] = target: HIV-1 Env of pseudovirus ZM233M.PB6 (HIV-1)
[28] = target: HIV-1 Env of pseudovirus ZM247v1(Rev-) (HIV-1)

10-1074 (antibody) showed an IC50, titer in TZM.bl cells [1] of 0.129 µg/mL, an IC80, titer in TZM.bl cells [1] of 0.563 µg/mL and an IC50, titer in TZM.bl cells [2] greater than 50 µg/mL. For the same substance, the IC80, titer in TZM.bl cells [2] was greater than 50 µg/mL, the IC50, titer in TZM.bl cells [3] was 0.022 µg/mL and the IC80, titer in TZM.bl cells [3] was 0.111 µg/mL. The IC50, titer in TZM.bl cells [4] was 0.666 µg/mL, the IC80, titer in TZM.bl cells [4] was 6.53 µg/mL and the IC50, titer in TZM.bl cells [5] was 0.068 µg/mL. It also gave an IC80, titer in TZM.bl cells [5] of 0.306 µg/mL, an IC50, titer in TZM.bl cells [6] of 0.014 µg/mL and an IC80, titer in TZM.bl cells [6] of 0.026 µg/mL. It also gave an IC50, titer in TZM.bl cells [7] of 0.847 µg/mL, an IC80, titer in TZM.bl cells [7] of 4.7 µg/mL and an IC50, titer in TZM.bl cells [8] of 0.022 µg/mL. The IC80, titer in TZM.bl cells [8] was 0.11 µg/mL, the IC50, titer in TZM.bl cells [9] was 7 ng/mL and the IC80, titer in TZM.bl cells [9] was 0.036 µg/mL. For the same substance, the IC50, titer in TZM.bl cells [10] was greater than 50 µg/mL, the IC80, titer in TZM.bl cells [10] was greater than 50 µg/mL and the IC50, titer in TZM.bl cells [11] was less than 1 ng/mL. For the same substance, the IC80, titer in TZM.bl cells [11] was 5 ng/mL, the IC50, titer in TZM.bl cells [12] was 1.23 µg/mL and the IC80, titer in TZM.bl cells [12] was 13.1 µg/mL. The IC50, titer in TZM.bl cells [13] was 0.039 µg/mL, the IC80, titer in TZM.bl cells [13] was 0.141 µg/mL and the IC50, titer in TZM.bl cells [14] was 0.047 µg/mL. It also gave an IC80, titer in TZM.bl cells [14] of 0.166 µg/mL, an IC50, titer in TZM.bl cells [15] greater than 50 µg/mL and an IC80, titer in TZM.bl cells [15] greater than 50 µg/mL. It also gave an IC50, titer in TZM.bl cells [16] of 0.139 µg/mL, an IC80, titer in TZM.bl cells [16] of 0.696 µg/mL and an IC50, titer in TZM.bl cells [17] of 0.015 µg/mL. For the same substance, the IC80, titer in TZM.bl cells [17] was 0.076 µg/mL, the IC50, titer in TZM.bl cells [18] was greater than 50 µg/mL and the IC80, titer in TZM.bl cells [18] was greater than 50 µg/mL. It also gave an IC50, titer in TZM.bl cells [19] greater than 50 µg/mL, an IC80, titer in TZM.bl cells [19] greater than 50 µg/mL and an IC50, titer in TZM.bl cells [20] of 0.074 µg/mL. The IC80, titer in TZM.bl cells [20] was 0.36 µg/mL, the IC50, titer in TZM.bl cells [21] was greater than 50 µg/mL and the IC80, titer in TZM.bl cells [21] was greater than 50 µg/mL. It also gave an IC50, titer in TZM.bl cells [22] greater than 50 µg/mL, an IC80, titer in TZM.bl cells [22] greater than 50 µg/mL and an IC50, titer in TZM.bl cells [23] of 0.021 µg/mL. For the same substance, the IC80, titer in TZM.bl cells [23] was 0.118 µg/mL, the IC50, titer in TZM.bl cells [24] was less than 1 ng/mL and the IC80, titer in TZM.bl cells [24] was 5 ng/mL. It also gave an IC50, titer in TZM.bl cells [25] of 0.104 µg/mL, an IC80, titer in TZM.bl cells [25] of 0.375 µg/mL and an IC50, titer in TZM.bl cells [26] of 0.069 µg/mL. The IC80, titer in TZM.bl cells [26] was 0.367 µg/mL, the IC50, titer in TZM.bl cells [27] was 0.06 µg/mL and the IC80, titer in TZM.bl cells [27] was 0.349 µg/mL. It also gave an IC50, titer in TZM.bl cells [28] of 0.042 µg/mL and an IC80, titer in TZM.bl cells [28] of 0.186 µg/mL.
For N49P9 (antibody), the IC50 [1] was 0.885 µg/mL, the IC80 [1] was 2.44 µg/mL and the MPI [1] was 100. The IC50 [3] was greater than 50 µg/mL, the IC80 [3] was greater than 50 µg/mL and the MPI [3] was 48. The IC50 [5] was 0.308 µg/mL, the IC80 [5] was 1.26 µg/mL and the MPI [5] was 100. It also gave an IC50 [6] of 0.552 µg/mL, an IC80 [6] of 2.26 µg/mL and an MPI [6] of 100. For the same substance, the IC50 [8] was 0.285 µg/mL, the IC80 [8] was 0.986 µg/mL and the MPI [8] was 100. It also gave an IC50 [9] of 2.09 µg/mL, an IC80 [9] of 7.38 µg/mL and an MPI [9] of 100. The IC50 [10] was 0.294 µg/mL, the IC80 [10] was 1.99 µg/mL and the MPI [10] was 98. For the same substance, the IC50 [11] was 0.465 µg/mL, the IC80 [11] was 2.43 µg/mL and the MPI [11] was 97. It also gave an IC50 [12] of 0.026 µg/mL, an IC80 [12] of 0.09 µg/mL and an MPI [12] of 100. It also gave an IC50 [13] of 0.123 µg/mL, an IC80 [13] of 0.462 µg/mL and an MPI [13] of 99. The IC50 [14] was 8.8 µg/mL, the IC80 [14] was greater than 50 µg/mL and the MPI [14] was 70. For the same substance, the IC50 [15] was 0.187 µg/mL, the IC80 [15] was 0.898 µg/mL and the MPI [15] was 98. For the same substance, the IC50 [16] was 0.133 µg/mL, the IC80 [16] was 0.605 µg/mL and the MPI [16] was 100. It also gave an IC50 [17] of 0.043 µg/mL, an IC80 [17] of 0.13 µg/mL and an MPI [17] of 100. It also gave an IC50 [18] of 0.179 µg/mL, an IC80 [18] of 0.635 µg/mL and an MPI [18] of 100. For the same substance, the IC50 [19] was 0.08 µg/mL, the IC80 [19] was 0.294 µg/mL and the MPI [19] was 100. The IC50 [20] was 0.179 µg/mL, the IC80 [20] was 0.628 µg/mL and the MPI [20] was 100. For the same substance, the IC50 [21] was 0.807 µg/mL, the IC80 [21] was greater than 50 µg/mL and the MPI [21] was 74. It also gave an IC50 [22] of 0.271 µg/mL, an IC80 [22] of 0.953 µg/mL and an MPI [22] of 100. For the same substance, the IC50 [23] was 0.023 µg/mL, the IC80 [23] was 0.078 µg/mL and the MPI [23] was 100. The IC50 [25] was 0.063 µg/mL, the IC80 [25] was 0.162 µg/mL and the MPI [25] was 100. For the same substance, the IC50 [26] was 0.224 µg/mL, the IC80 [26] was 0.863 µg/mL and the MPI [26] was 97. The IC50 [27] was greater than 50 µg/mL, the IC80 [27] was greater than 50 µg/mL and the MPI [27] was 48. It also gave an IC50 [28] of 0.622 µg/mL, an IC80 [28] of 3.3 µg/mL and an MPI [28] of 100.
